For twelve molecules, EC50 results are on record in patent publication US20110263827A1 (AbbVie / Abbott, published 2011).

Experiment [1] has as its target T1, ErbB3 (UniProt P21860 20-643, limits assumed, biotinylated).
T1 construct: ELISA antigen
Description: direct bind ELISA, N-term VD.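 Note: antibody or DVD-Ig preparations bound to immobilized target antigen on ELISA plates, 1 h at room temperature, TMB detection read as absorbance at 450 nm.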

Experiment [2] has as its target T2, EGFR (UniProt P00533 25-645, limits assumed, biotinylated).
T2 construct: ELISA antigen; construct not described
The experiment is described as follows: direct bind ELISA, C-term VD.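 Note: ELISA with antibody or DVD-Ig preparations applied to target antigen-coated plates for 1 h at room temperature, TMB colour development, absorbance read at 450 nm.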

The target of experiment [3] is T2, EGFR. The experiment is described as follows: direct bind ELISA, N-term VD.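 Note: antibody or DVD-Ig preparations bound to immobilized target antigen on ELISA plates, 1 h at room temperature, TMB detection read as absorbance at 450 nm.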
Experiment [4] deals with T1, ErbB3. The experiment is described as follows: direct bind ELISA, C-term VD.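 Note: ELISA with antibody or DVD-Ig preparations applied to target antigen-coated plates for 1 h at room temperature, TMB colour development, absorbance read at 450 nm.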

B1: DVD788 (bispecific antibody)
VH: EVQLLESGGGLVQPGGSLRLSCAASGFTFSHYVMAWVRQAPGKGLEWVSSISSSGGWTLYADSVKGRFTISRDNSKNTLYLQMNSLRAEDTAVYYCTRGLKMATIFDYWGQGTLVTVSSASTKGPSVFPLAPQVQLQESGPGLVKPSQTLSLTCTVSGYSISSDFAWNWIRQPPGKGLEWMGYISYSGNTRYQPSLKSRITISRDTSKNQFFLKLNSVTAADTATYYCVTAGRGFPYWGQGTLVTVSS
VL: QSALTQPASVSGSPGQSITISCTGTSSDVGSYNVVSWYQQHPGKAPKLIIYEVSQRPSGVSNRFSGSKSGNTASLTISGLQTEDEADYYCCSYAGSSIFVIFGGGTKVTVLGQPKAAPSVTLFPPDIQMTQSPSSMSVSVGDRVTITCHSSQDINSNIGWLQQKPGKSFKGLIYHGTNLDDGVPSRFSGSGSGTDYTLTISSLQPEDFATYYCVQYAQFPWTFGGGTKLEIKR
notes: DVD-Ig; HC L, LC L; variable parts only
Take B1: the EC50 in the experiment with ErbB3 [1] amounted to 3.14 nM; with EGFR [2], 18 nM.

B2: DVD328 (bispecific antibody)
VH: QVQLQQWGAGLLKPSETLSLTCAVYGGSFSGYYWSWIRQPPGKGLEWIGEINHSGSTNYNPSLKSRVTISVETSKNQFSLKLSSVTAADTAVYYCARDKWTWYFDLWGRGTLVTVSSASTKGPQVQLQESGPGLVKPSQTLSLTCTVSGYSISSDFAWNWIRQPPGKGLEWMGYISYSGNTRYQPSLKSRITISRDTSKNQFFLKLNSVTAADTATYYCVTAGRGFPYWGQGTLVTVSS
VL: DIEMTQSPDSLAVSLGERATINCRSSQSVLYSSSNRNYLAWYQQNPGQPPKLLIYWASTRESGVPDRFSGSGSGTDFTLTISSLQAEDVAVYYCQQYYSTPRTFGQGTKVEIKRTVAAPDIQMTQSPSSMSVSVGDRVTITCHSSQDINSNIGWLQQKPGKSFKGLIYHGTNLDDGVPSRFSGSGSGTDYTLTISSLQPEDFATYYCVQYAQFPWTFGGGTKLEIKR
notes: DVD-Ig; HC S, LC S; variable parts only
As for B2, the EC50 with ErbB3 [1] turned out to be 1.14 nM; in the experiment with EGFR [2], 94.9 nM.

B3: DVD801 (bispecific antibody)
VH: QVQLQESGPGLVKPSQTLSLTCTVSGYSISSDFAWNWIRQPPGKGLEWMGYISYSGNTRYQPSLKSRITISRDTSKNQFFLKLNSVTAADTATYYCVTAGRGFPYWGQGTLVTVSSASTKGPSVFPLAPEVQLVESGGGLVQPGGSLRLSCAASGFTFSIYSMNWVRQAPGKGLEWVSYISSSSSTIYYADSVKGRFTISRDNAKNSLYLQMNSLRDEDTAVYYCARDRGDFDAFDIWGQGTMVTVSS
VL: DIQMTQSPSSMSVSVGDRVTITCHSSQDINSNIGWLQQKPGKSFKGLIYHGTNLDDGVPSRFSGSGSGTDYTLTISSLQPEDFATYYCVQYAQFPWTFGGGTKLEIKRTVAAPDIQMTQSPSSLSASVGDRVTITCQASQDITNYLNWYQQKPGKAPKLLIYDASNLETGVPSRFSGSGSGTDFTFTISSLQPEDIATYNCQQCENFPITFGQGTRLEIKR
notes: DVD-Ig; HC L, LC S; variable parts only
On to B3, for which the results for the EC50 with EGFR [3] and in the experiment with ErbB3 [4] were 3.91 nM and 3.28 nM, respectively.

B4: DVD329 (bispecific antibody)
VH: QVQLQESGPGLVKPSQTLSLTCTVSGYSISSDFAWNWIRQPPGKGLEWMGYISYSGNTRYQPSLKSRITISRDTSKNQFFLKLNSVTAADTATYYCVTAGRGFPYWGQGTLVTVSSASTKGPEVQLVESGGGLVQPGGSLRLSCAASGFTFSIYSMNWVRQAPGKGLEWVSYISSSSSTIYYADSVKGRFTISRDNAKNSLYLQMNSLRDEDTAVYYCARDRGDFDAFDIWGQGTMVTVSS
VL: B3 VL
notes: as for B2
As for B4, the EC50 in the experiment with EGFR [3] was 3.82 nM; with ErbB3 [4] it was 481 nM.

B5: DVD770 (bispecific antibody)
VH: QVQLQQWGAGLLKPSETLSLTCAVYGGSFSGYYWSWIRQPPGKGLEWIGEINHSGSTNYNPSLKSRVTISVETSKNQFSLKLSSVTAADTAVYYCARDKWTWYFDLWGRGTLVTVSSASTKGPSVFPLAPQVQLQESGPGLVKPSQTLSLTCTVSGYSISSDFAWNWIRQPPGKGLEWMGYISYSGNTRYQPSLKSRITISRDTSKNQFFLKLNSVTAADTATYYCVTAGRGFPYWGQGTLVTVSS
VL: DIEMTQSPDSLAVSLGERATINCRSSQSVLYSSSNRNYLAWYQQNPGQPPKLLIYWASTRESGVPDRFSGSGSGTDFTLTISSLQAEDVAVYYCQQYYSTPRTFGQGTKVEIKRTVAAPSVFIFPPDIQMTQSPSSMSVSVGDRVTITCHSSQDINSNIGWLQQKPGKSFKGLIYHGTNLDDGVPSRFSGSGSGTDYTLTISSLQPEDFATYYCVQYAQFPWTFGGGTKLEIKR
notes: as for B1
Consider B5, for which the figures for the EC50 with ErbB3 [1] and in the experiment with EGFR [2] were 1.55 nM and 15.2 nM, respectively.

B6: DVD772 (bispecific antibody)
VH: EVQLVESGGGLVQPGGSLRLSCAASGFTFSIYSMNWVRQAPGKGLEWVSYISSSSSTIYYADSVKGRFTISRDNAKNSLYLQMNSLRDEDTAVYYCARDRGDFDAFDIWGQGTMVTVSSASTKGPSVFPLAPQVQLQESGPGLVKPSQTLSLTCTVSGYSISSDFAWNWIRQPPGKGLEWMGYISYSGNTRYQPSLKSRITISRDTSKNQFFLKLNSVTAADTATYYCVTAGRGFPYWGQGTLVTVSS
VL: DIQMTQSPSSLSASVGDRVTITCQASQDITNYLNWYQQKPGKAPKLLIYDASNLETGVPSRFSGSGSGTDFTFTISSLQPEDIATYNCQQCENFPITFGQGTRLEIKRTVAAPSVFIFPPDIQMTQSPSSMSVSVGDRVTITCHSSQDINSNIGWLQQKPGKSFKGLIYHGTNLDDGVPSRFSGSGSGTDYTLTISSLQPEDFATYYCVQYAQFPWTFGGGTKLEIKR
notes: as for B1
Take B6: the EC50 was 31.4 nM with ErbB3 [1] and 77.2 nM with EGFR [2].

B7: DVD829 (bispecific antibody)
VH: QVQLQESGPGLVKPSQTLSLTCTVSGYSISSDFAWNWIRQPPGKGLEWMGYISYSGNTRYQPSLKSRITISRDTSKNQFFLKLNSVTAADTATYYCVTAGRGFPYWGQGTLVTVSSASTKGPQVQLQQWGAGLLKPSETLSLTCAVYGGSFSGYYWSWIRQPPGKGLEWIGEINHSGSTNYNPSLKSRVTISVETSKNQFSLKLSSVTAADTAVYYCARDKWTWYFDLWGRGTLVTVSS
VL: DIQMTQSPSSMSVSVGDRVTITCHSSQDINSNIGWLQQKPGKSFKGLIYHGTNLDDGVPSRFSGSGSGTDYTLTISSLQPEDFATYYCVQYAQFPWTFGGGTKLEIKRTVAAPSVFIFPPDIEMTQSPDSLAVSLGERATINCRSSQSVLYSSSNRNYLAWYQQNPGQPPKLLIYWASTRESGVPDRFSGSGSGTDFTLTISSLQAEDVAVYYCQQYYSTPRTFGQGTKVEIKR
notes: DVD-Ig; HC S, LC L; variable parts only
For B7, the EC50 with EGFR [3] was 3.81 nM; with ErbB3 [4], 41.4 nM.

B8: DVD799 (bispecific antibody)
VH: QVQLQESGPGLVKPSQTLSLTCTVSGYSISSDFAWNWIRQPPGKGLEWMGYISYSGNTRYQPSLKSRITISRDTSKNQFFLKLNSVTAADTATYYCVTAGRGFPYWGQGTLVTVSSASTKGPSVFPLAPQVQLQQWGAGLLKPSETLSLTCAVYGGSFSGYYWSWIRQPPGKGLEWIGEINHSGSTNYNPSLKSRVTISVETSKNQFSLKLSSVTAADTAVYYCARDKWTWYFDLWGRGTLVTVSS
VL: DIQMTQSPSSMSVSVGDRVTITCHSSQDINSNIGWLQQKPGKSFKGLIYHGTNLDDGVPSRFSGSGSGTDYTLTISSLQPEDFATYYCVQYAQFPWTFGGGTKLEIKRTVAAPDIEMTQSPDSLAVSLGERATINCRSSQSVLYSSSNRNYLAWYQQNPGQPPKLLIYWASTRESGVPDRFSGSGSGTDFTLTISSLQAEDVAVYYCQQYYSTPRTFGQGTKVEIKR
notes: as for B3
As for B8, the EC50 with EGFR [3] amounted to 5.76 nM; in the experiment with ErbB3 [4], 20 nM.

B9: DVD847 (bispecific antibody)
VH: QVQLQESGPGLVKPSQTLSLTCTVSGYSISSDFAWNWIRQPPGKGLEWMGYISYSGNTRYQPSLKSRITISRDTSKNQFFLKLNSVTAADTATYYCVTAGRGFPYWGQGTLVTVSSASTKGPEVQLLESGGGLVQPGGSLRLSCAASGFTFSHYVMAWVRQAPGKGLEWVSSISSSGGWTLYADSVKGRFTISRDNSKNTLYLQMNSLRAEDTAVYYCTRGLKMATIFDYWGQGTLVTVSS
VL: DIQMTQSPSSMSVSVGDRVTITCHSSQDINSNIGWLQQKPGKSFKGLIYHGTNLDDGVPSRFSGSGSGTDYTLTISSLQPEDFATYYCVQYAQFPWTFGGGTKLEIKRTVAAPSVFIFPPQSALTQPASVSGSPGQSITISCTGTSSDVGSYNVVSWYQQHPGKAPKLIIYEVSQRPSGVSNRFSGSKSGNTASLTISGLQTEDEADYYCCSYAGSSIFVIFGGGTKVTVLG
notes: as for B7
As for B9, the EC50 amounted to 2.92 nM in the experiment with EGFR [3] and 12.9 nM with ErbB3 [4].

B10: DVD831 (bispecific antibody)
VH: B4 VH
VL: DIQMTQSPSSMSVSVGDRVTITCHSSQDINSNIGWLQQKPGKSFKGLIYHGTNLDDGVPSRFSGSGSGTDYTLTISSLQPEDFATYYCVQYAQFPWTFGGGTKLEIKRTVAAPSVFIFPPDIQMTQSPSSLSASVGDRVTITCQASQDITNYLNWYQQKPGKAPKLLIYDASNLETGVPSRFSGSGSGTDFTFTISSLQPEDIATYNCQQCENFPITFGQGTRLEIKR
notes: as for B7
As for B10, the EC50 in the experiment with EGFR [3] was 4.6 nM; with ErbB3 [4], 1.42 nM.

B11: DVD817 (bispecific antibody)
VH: QVQLQESGPGLVKPSQTLSLTCTVSGYSISSDFAWNWIRQPPGKGLEWMGYISYSGNTRYQPSLKSRITISRDTSKNQFFLKLNSVTAADTATYYCVTAGRGFPYWGQGTLVTVSSASTKGPSVFPLAPEVQLLESGGGLVQPGGSLRLSCAASGFTFSHYVMAWVRQAPGKGLEWVSSISSSGGWTLYADSVKGRFTISRDNSKNTLYLQMNSLRAEDTAVYYCTRGLKMATIFDYWGQGTLVTVSS
VL: DIQMTQSPSSMSVSVGDRVTITCHSSQDINSNIGWLQQKPGKSFKGLIYHGTNLDDGVPSRFSGSGSGTDYTLTISSLQPEDFATYYCVQYAQFPWTFGGGTKLEIKRTVAAPQSALTQPASVSGSPGQSITISCTGTSSDVGSYNVVSWYQQHPGKAPKLIIYEVSQRPSGVSNRFSGSKSGNTASLTISGLQTEDEADYYCCSYAGSSIFVIFGGGTKVTVLG
notes: as for B3
Regarding B11, the EC50 with EGFR [3] stood at 5.33 nM; with ErbB3 [4], 18.8 nM.

B12: DVD755 (bispecific antibody)
VH: B9 VH
VL: B11 VL
notes: as for B2
For B12, the EC50 with EGFR [3] was found to be 3.26 nM; with ErbB3 [4], 27.7 nM.
